The values below come from patent publication US20190367592A1 (AC IMMUNE, published 2019).

In test [1] the target is T1, recombinant human Tau monomer, 2N4R isoform (amino acids 2-441) (human, UniProt P10636-8 2-441).
T1 construct: range 2-441; N-terminal His-tag removed with TEV protease; also called monomeric Tau
As to the kind of experiment: SPR; Normalized Rmax post-stress (2 weeks 40 C) / pre-stress. As to the method: (§1) Briefly, IgGs in 1 mL culuture were captured using tip columns that were custom packed with 20 μL MabSelect SuRe resin (Glygen Corp & GE Healthcare). After washing with 1×PBS pH 7.4, IgGs were eluted into 160 μL of 50 mM phosphoric acid pH 3 and neutralized with 12 μL of 20×PBS pH 11. MabSelect SuRe tip columns were stripped in 0.1 M NaOH and regenerated with 1×PBS pH 7.4 for consecutive use of up to 15 times. Purified antibodies in 96-well format were normalized to 0.1 mg/ml using a Hamilton Star liquid handling robot. The “pre-stress” samples were kept at approximately 4° C. and the “post-stress” samples were incubated at 40° C. for two weeks in a PCR machine. Functional stability of the variants was compared by running surface plasmon resonance kinetics experiments with the “pre-stress” and “post-stress” antibody preps. The antibodies were assessed using a human antibody capture CM5 Series S chip generated using the GE Biacore human IgG capture kit and a Biacore T200 instrument. Antibodies diluted to 2 μg/ml were immobilized using a 15 second injection time and 10 μl/min flow rate. Binding to Tau monomer at 0 nM, 26.5 nM and 265 nM, at 25° C., using a flow rate of 40 μl/min, was monitored for a 180 second association phase followed by a 300 second dissociation phase. Samples were run in 10 mM HEPES pH7.4, 150 mM NaCl, 0.05% Tween 20 (HBSP) using a multi-cycle kinetics format. Data was analyzed using BIAevaluation software, fitting a 1:1 binding model. The resulting affinity (KD) values are shown in FIG. 8A-D. A Stability Index was also calculated, using the rationale that affinity-compromised antibodies (due for example to deamidation of key residues) are expected to contribute equally to the IgG capture level (“Ligand Level”) but to contribute less to the measured Tau binding, and that this would be reflected in the experimentally derived value for Rmax. To account for variations in the amount of each antibody captured, Rmax was normalized for the antibody capture level (as measured by “Ligand Level”, Response Units immobilized during antibody capture). Thus Normalized Rmax is calculated as the experimental Rmax (units=RU) divided by the “Ligand Level” (Evaluation output representing the RU captured during the hIgG capture step, units=RU), and Stability Index is calculated here as Normalized Rmax (post-stress) divided by Normalized Rmax (pre-stress).

The target of test [2] is T1, recombinant human Tau monomer, 2N4R …. As to the kind of experiment: SPR, captured IgG, Tau monomer analyte, 1:1 model; fit-quality column: Yes. The method, then:
as §1
For orientation: In SPR one partner is held on a chip, and binding of the other changes the refractive index at the surface.

By Kd is commonly meant a measure of binding affinity in units of concentration.

T1 sequence (P10636 other isoform, or with tags, fused parts or gaps limits assumed): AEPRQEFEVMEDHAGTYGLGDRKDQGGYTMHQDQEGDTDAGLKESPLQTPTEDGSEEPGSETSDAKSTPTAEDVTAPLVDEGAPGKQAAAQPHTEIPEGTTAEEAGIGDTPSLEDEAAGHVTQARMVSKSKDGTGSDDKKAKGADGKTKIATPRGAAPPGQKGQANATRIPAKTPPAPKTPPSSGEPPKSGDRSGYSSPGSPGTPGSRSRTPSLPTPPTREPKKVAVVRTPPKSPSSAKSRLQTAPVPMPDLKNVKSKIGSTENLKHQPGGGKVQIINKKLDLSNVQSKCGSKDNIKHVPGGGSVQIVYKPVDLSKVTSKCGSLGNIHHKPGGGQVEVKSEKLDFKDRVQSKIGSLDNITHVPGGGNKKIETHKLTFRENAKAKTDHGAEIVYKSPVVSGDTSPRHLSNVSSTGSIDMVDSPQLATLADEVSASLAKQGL

B1: hu37D3.v28.C2 (antibody, V domains shown)
VH: EVQLVESGGGLVQPGGSLRLSCAASGLIFRSYGMSWVRQAPGKGLEWVATINSGGTYTYYPDSVKGRFTISRDNSKNTLYLQMNSLRAEDTAVYYCANSYSGAMDYWGQGTLVTVSS
VL: DDVLTQTPLSLPVTPGQPASISCRSSQSIVHSNDNTYFEWYLQKPGQSPQLLIYKVSNRFSGVPDRFSGSGSGTDFTLKISRVEAEDVGVYYCFQGSLVPWTFGQGTKVEIK
As for B1, the “Stability Index” value in test [1] was found to be 75%. Further, the Kd in test [2] was 9.6 nM.

B2: hu37D3.v29.9 (antibody, V domains shown)
VH: EVQLVESGGGLVQPGGSLRLSCAASGLIFRSYGMSWVRQAPGKGLEWVATINSGGTYTYYPDSVKGRFTISRDNSKNTLYLQMNSLRAEDTAVYYCANSYSGAMDYWGQGTLVTVSS
VL: EDVLTQTPLSLPVTPGQPASISCRSSQSIVHSNAQTYFEWYLQKPGQSPQLLIYKVSNRFSGVPDRFSGSGSGTDFTLKISRVEAEDVGVYYCFQGSLVPWTFGQGTKVEIK
For the molecule B2, the “Stability Index” value in test [1] amounted to 86%. In test [2], the Kd turned out to be 7.3 nM.

B3: hu37D3.v29.1 (antibody, V domains shown)
VH: EVQLVESGGGLVQPGGSLRLSCAASGLIFRSYGMSWVRQAPGKGLEWVATINSGGTYTYYPDSVKGRFTISRDNSKNTLYLQMNSLRAEDTAVYYCANSYSGAMDYWGQGTLVTVSS
VL: EDVLTQTPLSLPVTPGQPASISCRSSQSIVHSNGDTYFEWYLQKPGQSPQLLIYKVSNRFSGVPDRFSGSGSGTDFTLKISRVEAEDVGVYYCFQGSLVPWTFGQGTKVEIK
Turning to B3, the “Stability Index” value in test [1] is 70%. For the same molecule, the Kd in test [2] was determined as 13.5 nM.

B4: hu37D3.v29.6 (antibody, V domains shown)
VH: EVQLVESGGGLVQPGGSLRLSCAASGLIFRSYGMSWVRQAPGKGLEWVATINSGGTYTYYPDSVKGRFTISRDNSKNTLYLQMNSLRAEDTAVYYCANSYSGAMDYWGQGTLVTVSS
VL: EDVLTQTPLSLPVTPGQPASISCRSSQSIVHSNGKTYFEWYLQKPGQSPQLLIYKVSNRFSGVPDRFSGSGSGTDFTLKISRVEAEDVGVYYCFQGSLVPWTFGQGTKVEIK
Turning to B4, in test [1], the “Stability Index” value stood at 62%. Moreover, the equilibrium dissociation constant (Kd) in test [2] was found to be 1.4 nM.

B5: hu37D3.v29.12 (antibody, V domains shown)
VH: EVQLVESGGGLVQPGGSLRLSCAASGLIFRSYGMSWVRQAPGKGLEWVATINSGGTYTYYPDSVKGRFTISRDNSKNTLYLQMNSLRAEDTAVYYCANSYSGAMDYWGQGTLVTVSS
VL: EDVLTQTPLSLPVTPGQPASISCRSSQSIVHSNAHTYFEWYLQKPGQSPQLLIYKVSNRFSGVPDRFSGSGSGTDFTLKISRVEAEDVGVYYCFQGSLVPWTFGQGTKVEIK
As to B5, the “Stability Index” value in test [1] is 50%. For the same molecule, the Kd in test [2] worked out at 7 nM.

B6: hu37D3.v28.E1 (antibody, V domains shown)
VH: EVQLVESGGGLVQPGGSLRLSCAASGLIFRSYGMSWVRQAPGKGLEWVATINSGGTYTYYPDSVKGRFTISRDNSKNTLYLQMNSLRAEDTAVYYCANSYSGAMDYWGQGTLVTVSS
VL: DDVLTQTPLSLPVTPGQPASISCRSSQSIVNSNGNTYFEWYLQKPGQSPQLLIYKVSNRFSGVPDRFSGSGSGTDFTLKISRVEAEDVGVYYCFQGSLVPWTFGQGTKVEIK
Take B6: in test [1], the “Stability Index” value amounted to 46%. Besides, the Kd in test [2] is 20.1 nM.

B7: hu37D3.v29.3 (antibody, V domains shown)
VH: EVQLVESGGGLVQPGGSLRLSCAASGLIFRSYGMSWVRQAPGKGLEWVATINSGGTYTYYPDSVKGRFTISRDNSKNTLYLQMNSLRAEDTAVYYCANSYSGAMDYWGQGTLVTVSS
VL: EDVLTQTPLSLPVTPGQPASISCRSSQSIVHSNGETYFEWYLQKPGQSPQLLIYKVSNRFSGVPDRFSGSGSGTDFTLKISRVEAEDVGVYYCFQGSLVPWTFGQGTKVEIK
Consider B7, for which the “Stability Index” value in test [1] came out at 93%. Further, the equilibrium dissociation constant (Kd) in test [2] worked out at 5.6 nM.

B8: hu37D3.v28.D1 (antibody, V domains shown)
VH: EVQLVESGGGLVQPGGSLRLSCAASGLIFRSYGMSWVRQAPGKGLEWVATINSGGTYTYYPDSVKGRFTISRDNSKNTLYLQMNSLRAEDTAVYYCANSYSGAMDYWGQGTLVTVSS
VL: DDVLTQTPLSLPVTPGQPASISCRSSQSIVHANGNTYFEWYLQKPGQSPQLLIYKVSNRFSGVPDRFSGSGSGTDFTLKISRVEAEDVGVYYCFQGSLVPWTFGQGTKVEIK
For the molecule B8, the “Stability Index” value in test [1] stood at 73%. Also, the Kd in test [2] is 5.7 nM.

B9: hu37D3.v28.E2 (antibody, V domains shown)
VH: EVQLVESGGGLVQPGGSLRLSCAASGLIFRSYGMSWVRQAPGKGLEWVATINSGGTYTYYPDSVKGRFTISRDNSKNTLYLQMNSLRAEDTAVYYCANSYSGAMDYWGQGTLVTVSS
VL: DDVLTQTPLSLPVTPGQPASISCRSSQSIVQSNGNTYFEWYLQKPGQSPQLLIYKVSNRFSGVPDRFSGSGSGTDFTLKISRVEAEDVGVYYCFQGSLVPWTFGQGTKVEIK
Consider B9, for which, in test [1], the “Stability Index” value worked out at 28%. For the same molecule, in test [2], the Kd was found to be 22.5 nM.

B10: hu37D3.v29.5 (antibody, V domains shown)
VH: EVQLVESGGGLVQPGGSLRLSCAASGLIFRSYGMSWVRQAPGKGLEWVATINSGGTYTYYPDSVKGRFTISRDNSKNTLYLQMNSLRAEDTAVYYCANSYSGAMDYWGQGTLVTVSS
VL: EDVLTQTPLSLPVTPGQPASISCRSSQSIVHSNGHTYFEWYLQKPGQSPQLLIYKVSNRFSGVPDRFSGSGSGTDFTLKISRVEAEDVGVYYCFQGSLVPWTFGQGTKVEIK
On to B10, for which the “Stability Index” value in test [1] was found to be 64%. Moreover, the Kd in test [2] came to 1.4 nM.

B11: hu37D3.v28.F2 (antibody, V domains shown)
VH: EVQLVESGGGLVQPGGSLRLSCAASGLIFRSYGMSWVRQAPGKGLEWVATINSGGTYTYYPDSVKGRFTISRDNSKNTLYLQMNSLRAEDTAVYYCANSYSGAMDYWGQGTLVTVSS
VL: DDVLTQTPLSLPVTPGQPASISCRSSQSIVHTNGNTYFEWYLQKPGQSPQLLIYKVSNRFSGVPDRFSGSGSGTDFTLKISRVEAEDVGVYYCFQGSLVPWTFGQGTKVEIK
For the molecule B11, the “Stability Index” value in test [1] is 51%. In addition, the Kd in test [2] came out at 1.9 nM.

B12: hu37D3.v28.F3 (antibody, V domains shown)
VH: EVQLVESGGGLVQPGGSLRLSCAASGLIFRSYGMSWVRQAPGKGLEWVATINSGGTYTYYPDSVKGRFTISRDNSKNTLYLQMNSLRAEDTAVYYCANSYSGAMDYWGQGTLVTVSS
VL: DDVLTQTPLSLPVTPGQPASISCRSSQSIVHTNANTYFEWYLQKPGQSPQLLIYKVSNRFSGVPDRFSGSGSGTDFTLKISRVEAEDVGVYYCFQGSLVPWTFGQGTKVEIK
Regarding B12, the “Stability Index” value in test [1] stood at 70%. Also, the Kd in test [2] worked out at 9.5 nM.

B13: hu37D3.v29.4 (antibody, V domains shown)
VH: EVQLVESGGGLVQPGGSLRLSCAASGLIFRSYGMSWVRQAPGKGLEWVATINSGGTYTYYPDSVKGRFTISRDNSKNTLYLQMNSLRAEDTAVYYCANSYSGAMDYWGQGTLVTVSS
VL: EDVLTQTPLSLPVTPGQPASISCRSSQSIVHSNGATYFEWYLQKPGQSPQLLIYKVSNRFSGVPDRFSGSGSGTDFTLKISRVEAEDVGVYYCFQGSLVPWTFGQGTKVEIK
In the case of B13, the “Stability Index” value in test [1] worked out at 76%. Also, the Kd in test [2] turned out to be 4.9 nM.

B14: hu37D3.v29.7 (antibody, V domains shown)
VH: EVQLVESGGGLVQPGGSLRLSCAASGLIFRSYGMSWVRQAPGKGLEWVATINSGGTYTYYPDSVKGRFTISRDNSKNTLYLQMNSLRAEDTAVYYCANSYSGAMDYWGQGTLVTVSS
VL: EDVLTQTPLSLPVTPGQPASISCRSSQSIVHSNGLTYFEWYLQKPGQSPQLLIYKVSNRFSGVPDRFSGSGSGTDFTLKISRVEAEDVGVYYCFQGSLVPWTFGQGTKVEIK
As for B14, in test [1], the “Stability Index” value was found to be 90%. For the same molecule, the Kd in test [2] was 4.6 nM.

B15: hu37D3.v29.10 (antibody, V domains shown)
VH: EVQLVESGGGLVQPGGSLRLSCAASGLIFRSYGMSWVRQAPGKGLEWVATINSGGTYTYYPDSVKGRFTISRDNSKNTLYLQMNSLRAEDTAVYYCANSYSGAMDYWGQGTLVTVSS
VL: EDVLTQTPLSLPVTPGQPASISCRSSQSIVHSNAETYFEWYLQKPGQSPQLLIYKVSNRFSGVPDRFSGSGSGTDFTLKISRVEAEDVGVYYCFQGSLVPWTFGQGTKVEIK
Consider B15, for which, in test [1], the “Stability Index” value was determined as 100%. Further, in test [2], the Kd was 17.4 nM.

B16: hu37D3.v29.11 (antibody, V domains shown)
VH: EVQLVESGGGLVQPGGSLRLSCAASGLIFRSYGMSWVRQAPGKGLEWVATINSGGTYTYYPDSVKGRFTISRDNSKNTLYLQMNSLRAEDTAVYYCANSYSGAMDYWGQGTLVTVSS
VL: EDVLTQTPLSLPVTPGQPASISCRSSQSIVHSNAATYFEWYLQKPGQSPQLLIYKVSNRFSGVPDRFSGSGSGTDFTLKISRVEAEDVGVYYCFQGSLVPWTFGQGTKVEIK
B16: the “Stability Index” value in test [1] worked out at 67%. In addition, the Kd in test [2] worked out at 27.9 nM.
